Experimental data reported in patent publication US20170336415A1.
Blank lines part the entries; values can stand above or below the substance they belong to.

Tests used:
fucosylated haptoglobin [1] = molecular target: fucosylated haptoglobin (UniProt P00738); experiment: sandwich ELISA as in Example 4, captured fHP, biotin-labeled AML, 5 M urea
fucosylated haptoglobin [2] = molecular target: fucosylated haptoglobin (UniProt P00738); experiment: sandwich ELISA, 5 M urea against no urea
fucosylated haptoglobin [3] = molecular target: fucosylated haptoglobin (UniProt P00738); experiment: sandwich ELISA, 5 M urea minus no urea
fucosylated haptoglobin [4] = molecular target: fucosylated haptoglobin (UniProt P00738); experiment: sandwich ELISA as in Example 4, captured fHP, biotin-labeled AML, no urea
fucosylated haptoglobin [5] = molecular target: fucosylated haptoglobin (UniProt P00738); experiment: sandwich ELISA, fHP 200 ng/mL captured by anti-haptoglobin antibody, biotin-labeled lectin 1 µg/mL, no urea
fucosylated haptoglobin [6] = molecular target: fucosylated haptoglobin (UniProt P00738); experiment: sandwich ELISA, fHP 200 ng/mL captured by anti-haptoglobin antibody, biotin-labeled lectin 1 µg/mL, 5 M urea
fucosylated haptoglobin [7] = molecular target: fucosylated haptoglobin (UniProt P00738); experiment: sandwich ELISA as in Example 4, captured fHP, biotin-labeled NSL, 5 M urea
fucosylated haptoglobin [8] = molecular target: fucosylated haptoglobin (UniProt P00738); experiment: sandwich ELISA as in Example 4, captured fHP, biotin-labeled NSL, no urea
fucosylated haptoglobin [9] = molecular target: fucosylated haptoglobin (UniProt P00738); experiment: magnetic bead assay: fHP 0.45 µg/mL mixed with recombinant lectin 5 µg/mL, captured on anti-haptoglobin antibody beads, HRP anti-FLAG detection, no urea
fucosylated haptoglobin [10] = molecular target: fucosylated haptoglobin (UniProt P00738); experiment: magnetic bead assay, 5 M urea minus no urea
fucosylated haptoglobin [11] = molecular target: fucosylated haptoglobin (UniProt P00738); experiment: magnetic bead assay: fHP 0.45 µg/mL mixed with recombinant lectin 5 µg/mL, captured on anti-haptoglobin antibody beads, HRP anti-FLAG detection, 5 M urea
fucosylated haptoglobin [12] = molecular target: fucosylated haptoglobin (UniProt P00738); experiment: magnetic bead assay, 5 M urea against no urea
fucosylated haptoglobin [13] = molecular target: fucosylated haptoglobin (UniProt P00738); experiment: magnetic bead assay, signal with fHP divided by signal without fHP, no urea
fucosylated haptoglobin [14] = molecular target: fucosylated haptoglobin (UniProt P00738); experiment: magnetic bead assay, signal with fHP divided by signal without fHP, 5 M urea
fucosylated haptoglobin [15] = molecular target: fucosylated haptoglobin (UniProt P00738); experiment: sandwich ELISA, wash with 1.2 M thiourea against wash without
fucosylated haptoglobin [16] = molecular target: fucosylated haptoglobin (UniProt P00738); experiment: direct adsorption ELISA, 5 M urea minus no urea
α-fetoprotein L3 [17] = molecular target: α-fetoprotein L3 (UniProt P02771); experiment: direct adsorption ELISA, 5 M urea minus no urea
Chain of α-fetoprotein L3 (P02771 19-609 limits assumed): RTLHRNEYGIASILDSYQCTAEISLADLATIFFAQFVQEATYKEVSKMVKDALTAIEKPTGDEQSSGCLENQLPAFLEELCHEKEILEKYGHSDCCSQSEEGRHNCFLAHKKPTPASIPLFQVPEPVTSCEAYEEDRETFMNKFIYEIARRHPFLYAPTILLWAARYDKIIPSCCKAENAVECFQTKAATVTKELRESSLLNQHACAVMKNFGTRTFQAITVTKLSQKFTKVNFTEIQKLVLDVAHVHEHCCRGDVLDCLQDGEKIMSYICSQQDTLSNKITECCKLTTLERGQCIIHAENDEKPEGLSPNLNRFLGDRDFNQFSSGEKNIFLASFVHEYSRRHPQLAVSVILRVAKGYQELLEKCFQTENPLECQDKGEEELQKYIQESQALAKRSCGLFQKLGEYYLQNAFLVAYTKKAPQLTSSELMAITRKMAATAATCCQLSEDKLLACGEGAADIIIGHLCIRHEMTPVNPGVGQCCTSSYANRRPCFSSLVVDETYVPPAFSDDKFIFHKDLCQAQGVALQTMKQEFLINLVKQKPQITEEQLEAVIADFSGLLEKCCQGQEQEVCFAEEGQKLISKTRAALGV

α-fetoprotein L3 [18] = molecular target: α-fetoprotein L3 (UniProt P02771); experiment: direct adsorption ELISA, AFP-L3 immobilized, biotin-labeled PhoSL 1 µg/mL, no urea
fucosylated haptoglobin [19] = molecular target: fucosylated haptoglobin (UniProt P00738); experiment: direct adsorption ELISA, fHP immobilized, biotin-labeled PhoSL, no thiourea
fucosylated haptoglobin [20] = molecular target: fucosylated haptoglobin (UniProt P00738); experiment: sandwich ELISA as in Example 4 (biotin-labeled PhoSL), captured fHP washed with detergent liquid with 5 M urea, no urea in lectin solution
α-fetoprotein L3 [21] = molecular target: α-fetoprotein L3 (UniProt P02771); experiment: direct adsorption ELISA, AFP-L3 immobilized, biotin-labeled PhoSL 1 µg/mL, 5 M urea
α-fetoprotein L3 [22] = molecular target: α-fetoprotein L3 (UniProt P02771); experiment: direct adsorption ELISA, AFP-L3 immobilized, biotin-labeled PhoSL, no thiourea
fucosylated haptoglobin [23] = molecular target: fucosylated haptoglobin (UniProt P00738); experiment: sandwich ELISA as in Example 4 (biotin-labeled PhoSL), captured fHP washed with detergent liquid without urea or thiourea
fucosylated haptoglobin [24] = molecular target: fucosylated haptoglobin (UniProt P00738); experiment: sandwich ELISA as in Example 4, thiourea 0 to 1.5 M
fucosylated haptoglobin [25] = molecular target: fucosylated haptoglobin (UniProt P00738); experiment: direct adsorption ELISA, 5 M urea against no urea
α-fetoprotein L3 [26] = molecular target: α-fetoprotein L3 (UniProt P02771); experiment: direct adsorption ELISA, 5 M urea against no urea
fucosylated haptoglobin [27] = molecular target: fucosylated haptoglobin (UniProt P00738); experiment: direct adsorption ELISA, fHP immobilized, biotin-labeled PhoSL 1 µg/mL, no urea
fucosylated haptoglobin [28] = molecular target: fucosylated haptoglobin (UniProt P00738); experiment: sandwich ELISA as in Example 4 (biotin-labeled PhoSL), captured fHP washed with detergent liquid with 1.2 M thiourea, none in lectin solution
fucosylated haptoglobin [29] = molecular target: fucosylated haptoglobin (UniProt P00738); experiment: direct adsorption ELISA, 1.2 M thiourea against no thiourea
α-fetoprotein L3 [30] = molecular target: α-fetoprotein L3 (UniProt P02771); experiment: as above
fucosylated haptoglobin [31] = molecular target: fucosylated haptoglobin (UniProt P00738); experiment: sandwich ELISA, wash with 1.2 M thiourea minus wash without
fucosylated haptoglobin [32] = molecular target: fucosylated haptoglobin (UniProt P00738); experiment: direct adsorption ELISA, 1.2 M thiourea minus no thiourea
α-fetoprotein L3 [33] = molecular target: α-fetoprotein L3 (UniProt P02771); experiment: as above
fucosylated haptoglobin [34] = molecular target: fucosylated haptoglobin (UniProt P00738); experiment: sandwich ELISA, wash with 5 M urea minus wash without
fucosylated haptoglobin [35] = molecular target: fucosylated haptoglobin (UniProt P00738); experiment: sandwich ELISA, wash with 5 M urea against wash without
fucosylated haptoglobin [36] = molecular target: fucosylated haptoglobin (UniProt P00738); experiment: sandwich ELISA as in Example 4, fHP 50 ng/mL, urea 0 to 9 M
fucosylated haptoglobin [37] = molecular target: fucosylated haptoglobin (UniProt P00738); experiment: direct adsorption ELISA, fHP immobilized, biotin-labeled PhoSL 1 µg/mL, 5 M urea
fucosylated haptoglobin [38] = molecular target: fucosylated haptoglobin (UniProt P00738); experiment: direct adsorption ELISA, fHP immobilized, biotin-labeled PhoSL, 1.2 M thiourea
α-fetoprotein L3 [39] = molecular target: α-fetoprotein L3 (UniProt P02771); experiment: direct adsorption ELISA, AFP-L3 immobilized, biotin-labeled PhoSL, 1.2 M thiourea
fucosylated haptoglobin [40] = molecular target: fucosylated haptoglobin (UniProt P00738); experiment: sandwich ELISA as in Example 4, captured fHP, biotin-labeled PTL, 5 M urea
fucosylated haptoglobin [41] = molecular target: fucosylated haptoglobin (UniProt P00738); experiment: sandwich ELISA as in Example 4, captured fHP, biotin-labeled PTL, no urea

Chain of fucosylated haptoglobin (P00738 19-406 limits assumed): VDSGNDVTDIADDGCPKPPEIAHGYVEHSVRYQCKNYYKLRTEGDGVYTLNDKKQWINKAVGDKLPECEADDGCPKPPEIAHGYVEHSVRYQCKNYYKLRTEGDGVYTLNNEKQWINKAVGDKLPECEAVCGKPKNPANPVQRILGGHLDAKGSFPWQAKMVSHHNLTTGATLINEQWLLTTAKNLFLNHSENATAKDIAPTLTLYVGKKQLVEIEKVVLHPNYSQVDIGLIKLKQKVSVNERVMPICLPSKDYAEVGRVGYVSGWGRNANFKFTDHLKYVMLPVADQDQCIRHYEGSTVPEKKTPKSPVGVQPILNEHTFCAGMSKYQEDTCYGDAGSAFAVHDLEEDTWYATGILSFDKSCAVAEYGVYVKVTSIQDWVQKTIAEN

Substance: Amanita muscaria lectin (AML), biotin-labeled
Reaction value (S - N)urea 5M (absorbance (450 nm - 630 nm)) (fucosylated haptoglobin [1]): 0.548 | Increased rate of signal (fucosylated haptoglobin [2]): 20.3 fold | Increased amount of signal (absorbance (450 nm - 630 nm)) (fucosylated haptoglobin [3]): 0.521 | Reaction value (S - N)urea 0M (absorbance (450 nm - 630 nm)) (fucosylated haptoglobin [4]): 0.027

Substance: Naematoloma sublateritium lectin (NSL), biotin-labeled
Reaction value (S - N)urea 5M (absorbance (450 nm - 630 nm)) (fucosylated haptoglobin [7]): 1.34 | Increased rate of signal (fucosylated haptoglobin [2]): 3.18 fold | Reaction value (S - N)urea 0M (absorbance (450 nm - 630 nm)) (fucosylated haptoglobin [8]): 0.423 | Increased amount of signal (absorbance (450 nm - 630 nm)) (fucosylated haptoglobin [3]): 0.922

Substance: PhoSL peptide, biotin-labeled
Increased rate of signal (fucosylated haptoglobin [2]): 1.32 fold | Reaction value (S - N)urea 0M (absorbance (450 nm - 630 nm)) (fucosylated haptoglobin [5]): 0.162 | Increased amount of signal (absorbance (450 nm - 630 nm)) (fucosylated haptoglobin [3]): 0.052 | Reaction value (S - N)urea 5M (absorbance (450 nm - 630 nm)) (fucosylated haptoglobin [6]): 0.214

Substance: PhoSL recombinant lectin
Reaction value (S - N)urea 0M (absorbance (450 nm - 630 nm)) (fucosylated haptoglobin [9]): 0.455 | Increased amount of signal (absorbance (450 nm - 630 nm)) (fucosylated haptoglobin [10]): 0.253 | Reaction value (S - N)urea 5M (absorbance (450 nm - 630 nm)) (fucosylated haptoglobin [11]): 0.708 | Increased rate of signal (fucosylated haptoglobin [12]): 1.56 fold | Reaction value (S/N)urea 0M (fucosylated haptoglobin [13]): 6.83 | Reaction value (S/N)urea 5M (fucosylated haptoglobin [14]): 26.3

Results, then the substance that gave them:

Increased rate of signal (fucosylated haptoglobin [2]): 0.88 fold | Reaction value (S - N)urea 0M (absorbance (450 nm - 630 nm)) (fucosylated haptoglobin [5]): 0.877 | Increased amount of signal (absorbance (450 nm - 630 nm)) (fucosylated haptoglobin [3]): -0.103 | Reaction value (S - N)urea 5M (absorbance (450 nm - 630 nm)) (fucosylated haptoglobin [6]): 0.774
Substance: Biotin-labeled Aleuria aurantia lectin (from UniProt P18891 2-313)

Increased rate of signal (fucosylated haptoglobin [15]): 1.67 fold | Increased amount of signal (absorbance (450 nm - 630 nm)) (fucosylated haptoglobin [16]): 0.471 | Increased amount of signal (absorbance (450 nm - 630 nm)) (α-fetoprotein L3 [17]): 0.124 | Reaction value (S - N)urea 0M (absorbance (450 nm - 630 nm)) (α-fetoprotein L3 [18]): 0.008 | Reaction value (S - N)thiourea 0M (absorbance (450 nm - 630 nm)) (fucosylated haptoglobin [19]): 0.36 | Reaction value (S - N)urea 5M (absorbance (450 nm - 630 nm)) (fucosylated haptoglobin [20]): 1 | Reaction value (S - N)urea 5M (absorbance (450 nm - 630 nm)) (α-fetoprotein L3 [21]): 0.132 | Reaction value (S - N)thiourea 0M (absorbance (450 nm - 630 nm)) (α-fetoprotein L3 [22]): 0.003 | Increased rate of signal (fucosylated haptoglobin [2]): 3 fold | Reaction value (S - N)0M (absorbance (450 nm - 630 nm)) (fucosylated haptoglobin [23]): 0.545 | increased rate of the signals against no thiourea (fucosylated haptoglobin [24]): 1.2 to 4.1 times | Increased rate of signal (fucosylated haptoglobin [25]): 2.86 fold | Increased rate of signal (α-fetoprotein L3 [26]): 16.5 fold | Reaction value (S - N)urea 0M (absorbance (450 nm - 630 nm)) (fucosylated haptoglobin [5]): 0.265 | Increased amount of signal (absorbance (450 nm - 630 nm)) (fucosylated haptoglobin [3]): 0.531 | Reaction value (S - N)urea 0M (absorbance (450 nm - 630 nm)) (fucosylated haptoglobin [27]): 0.253 | Reaction value (S - N)thiourea 1.2M (absorbance (450 nm - 630 nm)) (fucosylated haptoglobin [28]): 0.909 | Increased rate of signal (fucosylated haptoglobin [29]): 2.89 fold | Increased rate of signal (α-fetoprotein L3 [30]): 39 fold | Increased amount of signal (absorbance (450 nm - 630 nm)) (fucosylated haptoglobin [31]): 0.364 | Increased amount of signal (absorbance (450 nm - 630 nm)) (fucosylated haptoglobin [32]): 0.681 | Increased amount of signal (absorbance (450 nm - 630 nm)) (α-fetoprotein L3 [33]): 0.114 | Increased amount of signal (absorbance (450 nm - 630 nm)) (fucosylated haptoglobin [34]): 0.457 | Increased rate of signal (fucosylated haptoglobin [35]): 1.84 fold | increased rate of the signals against no urea (fucosylated haptoglobin [36]): 1.2 to 2.8 times | Reaction value (S - N)urea 5M (absorbance (450 nm - 630 nm)) (fucosylated haptoglobin [6]): 0.796 | Reaction value (S - N)urea 5M (absorbance (450 nm - 630 nm)) (fucosylated haptoglobin [37]): 0.724 | Reaction value (S - N)thiourea 1.2M (absorbance (450 nm - 630 nm)) (fucosylated haptoglobin [38]): 1.04 | Reaction value (S - N)thiourea 1.2M (absorbance (450 nm - 630 nm)) (α-fetoprotein L3 [39]): 0.117
Substance: Pholiota squarrosa lectin (PhoSL), biotin-labeled

Increased rate of signal (fucosylated haptoglobin [2]): 2.37 fold | Increased amount of signal (absorbance (450 nm - 630 nm)) (fucosylated haptoglobin [3]): 0.743 | Reaction value (S - N)urea 5M (absorbance (450 nm - 630 nm)) (fucosylated haptoglobin [40]): 1.28 | Reaction value (S - N)urea 0M (absorbance (450 nm - 630 nm)) (fucosylated haptoglobin [41]): 0.542
Substance: Pholiota terrestris lectin (PTL), biotin-labeled

Increased rate of signal (fucosylated haptoglobin [2]): 2.01 fold | Reaction value (S - N)urea 0M (absorbance (450 nm - 630 nm)) (fucosylated haptoglobin [5]): 0.43 | Increased amount of signal (absorbance (450 nm - 630 nm)) (fucosylated haptoglobin [3]): 0.433 | Reaction value (S - N)urea 5M (absorbance (450 nm - 630 nm)) (fucosylated haptoglobin [6]): 0.863
Substance: Stropharia rugosoannulata lectin (SRL), biotin-labeled
